T1: S. pombe Hop2-Mnd1 complex, purified, His-tagged (S. pombe, UniProt Q9HGK2;Q09739)
T1 sequence 1: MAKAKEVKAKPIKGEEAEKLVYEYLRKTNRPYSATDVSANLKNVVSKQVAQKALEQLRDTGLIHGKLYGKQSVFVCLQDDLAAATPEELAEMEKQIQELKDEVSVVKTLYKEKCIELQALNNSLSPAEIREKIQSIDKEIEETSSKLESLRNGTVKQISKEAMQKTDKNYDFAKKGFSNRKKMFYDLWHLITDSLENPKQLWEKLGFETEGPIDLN
T1 sequence 2: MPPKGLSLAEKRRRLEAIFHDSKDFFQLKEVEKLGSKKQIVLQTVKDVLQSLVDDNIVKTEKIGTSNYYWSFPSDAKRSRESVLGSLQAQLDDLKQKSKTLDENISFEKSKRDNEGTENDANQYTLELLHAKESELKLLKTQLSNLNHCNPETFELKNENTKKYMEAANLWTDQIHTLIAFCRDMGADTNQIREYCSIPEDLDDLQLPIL

T2: S. pombe Hop2 (Meu13), His-tagged, from pET28b, co-expressed and co-purified with Mnd1 (S. pombe, UniProt Q9HGK2 1-216)
T2 sequence: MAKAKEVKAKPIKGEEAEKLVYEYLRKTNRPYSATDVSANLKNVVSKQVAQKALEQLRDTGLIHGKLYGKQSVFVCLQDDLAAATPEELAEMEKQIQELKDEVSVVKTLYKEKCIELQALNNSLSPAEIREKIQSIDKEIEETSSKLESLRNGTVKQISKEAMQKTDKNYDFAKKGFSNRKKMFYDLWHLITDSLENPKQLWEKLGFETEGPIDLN


Key:
[1] = target: T1, S. pombe Hop2-Mnd1 complex, purified, …; experiment: pull-down
[2] = target: T2, S. pombe Hop2 (Meu13), His-tagged, from …; experiment: co-elution in ion-exchange chromatography

Row | binding result [1] | binding result [2] | Binder
1 | binds |  | S. pombe Dmc1, purified (natural protein) MEEFAEGNDDEQMIFSDIEDLTAHGIGMTDIIKLKQAGVCTVQGVHMSTKRFLLKIKGFSEAKVDKLKEAASKMCPANFSTAMEISQNRKKVWSISTGSEALNGILGGGIQSMSITEVFGEFRCGKTQMSHTLCVTAQLPRDMGGAEGKVAFIDTEGTFRPDRIKAIAERFGVDADQAMENIIVSRAYNSEQQMEYITKLGTIFAEDGQYRLLIVDSIMALFRVDYSGRGELSERQQKLNIMLARLNHISEEFNVAVFVTNQVQADPGAAMMFASNDRKPVGGHVMAHASATRLLLRKGRGEERVAKLNDSPDMPEAECSYVITPGGIADVS
2 |  | binds | S. pombe Mnd1 (Mcp7), His-tagged, from pET16b, co-expressed and co-purified with Hop2 (natural protein) MPPKGLSLAEKRRRLEAIFHDSKDFFQLKEVEKLGSKKQIVLQTVKDVLQSLVDDNIVKTEKIGTSNYYWSFPSDAKRSRESVLGSLQAQLDDLKQKSKTLDENISFEKSKRDNEGTENDANQYTLELLHAKESELKLLKTQLSNLNHCNPETFELKNENTKKYMEAANLWTDQIHTLIAFCRDMGADTNQIREYCSIPEDLDDLQLPIL
3 | binds |  | S. pombe Rad51, purified (natural protein) MADTEVEMQVSAADTNNNENGQAQSNYEYDVNVQDEEDEAAAGPMPLQMLEGNGITASDIKKIHEAGYYTVESIAYTPKRQLLLIKGISEAKADKLLGEASKLVPMGFTTATEYHIRRSELITITTGSKQLDTLLQGGVETGSITELFGEFRTGKSQICHTLAVTCQLPIDMGGGEGKCLYIDTEGTFRPVRLLAVADRYGLNGEEVLDNVAYARAYNADHQLELLQQAANMMSESRFSLLVVDSCTALYRTDFSGRGELSARQMHLARFMRTLQRLADEFGIAVVITNQVVAQVDGISFNPDPKKPIGGNILAHSSTTRLSLRKGRGEQRICKIYDSPCLPESEAIFAINSDGVGDPKEIIAPV

Reference: publication PMC1885673 (Nucleic Acids Research, 2007)
